± gives the uncertainty stated by the source.
B1: library; numbered along this chain (parent)
chain: MEVVDPQQLGMFTEGELMSVGMDTFIHRIDSTEVIYQPRRKRAKLIGKYLMGDLLGEGSYGKVKEVLDSETLCRRAVKILKKKKLRRIPNGEANVKKEIQLLRRLRHKNVIQLVDVLYNEEKQKMYMVMEYCVCGMQEMLDSVPEKRFPVCQAHGYFCQLIDGLEYLHSQGIVHKDIKPGNLLLTTGGTLKISDLGVAEALHPFAADDTCRTSQGSPAFQPPEIANGLDTFSGFKVDIWSAGVTLYNITTGLYPFEGDNIYKLFENIGKGSYAIPGDCGPPLSDLLKGMLEYEPAKRFSIRQIRQHSWFRKKHPPAEAPVPIPPSPDTKDRWRSMTVVPYLEDLHGADEDEDLFDIEDDIIYTQDFTVPGQVPEEEASHNGQRRGLPKAVCMNGTEAAQLSTKSRAEGRAPNPARKACSASSKIRRLSACKQQ

Variants of: B1
Assay: STK11 functional score (HeLa growth suppression), rescaled enrichment; synonymous median = 1, nonsense median = 0 (normalised score)
Settings: with HeLa; variant type: missense
How it was run: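 The functional score takes the post/pre-selection log ratio, corrects it to wild type, rescales it to synonymous and nonsense medians, and merges it over codons and replicate transfections, with error from bootstrapping. Counts came from tiled gDNA amplicons sequenced on NextSeq (~2 million reads per tile). The libraries were POPCode codon-randomised, codon-optimised STK11 integrated by Bxb1 at an AAVS1 landing pad in HeLa, three regions with three transfections each.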

First: K262I
Second: K262L
The STK11 functional score of the first is lower: 0.763 ± 0.14 for the first, 1.13 ± 0.13 for the second.

K262Y and K262N are within error of each other in STK11 functional score: 1.29 ± 0.3 for the first, 1.33 ± 0.53 for the second.

K262D and K262V are within error of each other in STK11 functional score: 1.38 ± 0.2 for the first, 1.29 ± 0.3 for the second.

K262S and T250V are within error of each other in STK11 functional score: 0.994 ± 0.17 for the first, 1.24 ± 0.14 for the second.

Going from T250P to T250Y, the STK11 functional score rises from -0.224 ± 0.1 to 1.31 ± 0.65.

Compared with T250S, T250K is lower in STK11 functional score: 1.37 ± 0.27 for the first, 0.0557 ± 0.22 for the second.

Compared with T250R, T250L is higher in STK11 functional score: 0.727 ± 0.25 for the first, 1.45 ± 0.1 for the second.

T250W and L252F are within error of each other in STK11 functional score: 1.48 ± 0.098 for the first, 1.07 ± 0.39 for the second.

Going from L252S to L252M, the STK11 functional score falls from 1.5 ± 0.22 to 0.771 ± 0.35.

Going from L252Y to L252V, the STK11 functional score rises from 0.274 ± 0.59 to 1.3 ± 0.094.

L252I and L252W are within error of each other in STK11 functional score: 1.54 ± 0.12 for the first, 1.42 ± 0.17 for the second.

G270S and G270N are within error of each other in STK11 functional score: 1.47 ± 0.17 for the first, 1.4 ± 0.35 for the second.

G270T and G270H are within error of each other in STK11 functional score: 1.09 ± 0.15 for the first, 1.07 ± 0.31 for the second.

G270P and G270D are within error of each other in STK11 functional score: 1.43 ± 0.19 for the first, 1.52 ± 0.2 for the second.

G270L and G270Q are within error of each other in STK11 functional score: 0.945 ± 0.13 for the first, 1.16 ± 0.38 for the second.

G270I and G270C are within error of each other in STK11 functional score: 0.821 ± 0.36 for the first, 1.41 ± 0.31 for the second.

G270V and G270E are within error of each other in STK11 functional score: 1.26 ± 0.25 for the first, 1.42 ± 0.72 for the second.

G270A and G270M are within error of each other in STK11 functional score: 0.849 ± 0.32 for the first, 0.994 ± 0.46 for the second.

G270F and G270R are within error of each other in STK11 functional score: 1.14 ± 0.39 for the first, 1.43 ± 0.39 for the second.

F255A and F255T are within error of each other in STK11 functional score: 1.31 ± 0.29 for the first, 0.94 ± 0.13 for the second.

F255N and F255L are within error of each other in STK11 functional score: 0.322 ± 0.14 for the first, 0.5 ± 0.21 for the second.

F255Q and F255S are within error of each other in STK11 functional score: 0.98 ± 0.44 for the first, 1.14 ± 0.19 for the second.

First: F255R
Second: F255I
The STK11 functional score of the first is lower: 0.632 ± 0.2 for the first, 1.36 ± 0.38 for the second.

Going from F255D to F255C, the STK11 functional score rises from 0.348 ± 0.1 to 0.921 ± 0.12.

F255M and F255W are within error of each other in STK11 functional score: 0.792 ± 0.1 for the first, 0.941 ± 0.1 for the second.

F255Y and F255E are within error of each other in STK11 functional score: 1.25 ± 0.79 for the first, 0.827 ± 0.37 for the second.

F255V and F255H are within error of each other in STK11 functional score: 1.09 ± 0.13 for the first, 0.97 ± 0.25 for the second.

F255G and F255P are within error of each other in STK11 functional score: 0.519 ± 0.14 for the first, 0.517 ± 0.11 for the second.

Compared with P254G, P254A is lower in STK11 functional score: 0.298 ± 0.11 for the first, -0.109 ± 0.13 for the second.

Compared with P254S, P254Y is lower in STK11 functional score: 0.653 ± 0.17 for the first, 0.0833 ± 0.12 for the second.

Going from P254F to P254H, the STK11 functional score rises from 0.445 ± 0.29 to 1.41 ± 0.15.

P254V and P254T are within error of each other in STK11 functional score: 0.86 ± 0.31 for the first, 0.929 ± 0.1 for the second.

P254L and P254C are within error of each other in STK11 functional score: 0.528 ± 0.12 for the first, 0.821 ± 0.47 for the second.

Compared with P254R, P254W is higher in STK11 functional score: 0.199 ± 0.14 for the first, 0.882 ± 0.1 for the second.

Compared with Y261T, Y261W is lower in STK11 functional score: 1.04 ± 0.29 for the first, 0.609 ± 0.091 for the second.

Y261F and Y261L are within error of each other in STK11 functional score: 0.449 ± 0.14 for the first, 0.609 ± 0.14 for the second.

Y261C and Y261A are within error of each other in STK11 functional score: 0.999 ± 0.41 for the first, 1.25 ± 0.43 for the second.

Y261V and Y261S are within error of each other in STK11 functional score: 1.22 ± 0.4 for the first, 0.699 ± 0.16 for the second.

First: Y261I
Second: Y261G
The STK11 functional score of the first is higher: 1.62 ± 0.16 for the first, 0.901 ± 0.2 for the second.

Y261H and Y261P are within error of each other in STK11 functional score: 0.771 ± 0.86 for the first, 1.15 ± 0.38 for the second.

E256G and E256F are within error of each other in STK11 functional score: 1.17 ± 0.28 for the first, 0.982 ± 0.22 for the second.

Compared with E256L, E256C is lower in STK11 functional score: 1.52 ± 0.31 for the first, 0.541 ± 0.33 for the second.

E256S and E256Y are within error of each other in STK11 functional score: 1.36 ± 0.4 for the first, 1.4 ± 0.16 for the second.

E256A and E256Q are within error of each other in STK11 functional score: 0.686 ± 0.64 for the first, 1.47 ± 0.56 for the second.

E256W and E256I are within error of each other in STK11 functional score: 1.65 ± 0.13 for the first, 1.04 ± 0.77 for the second.

Going from E256V to E256R, the STK11 functional score rises from 0.873 ± 0.33 to 1.48 ± 0.19.

Going from E256D to N259Y, the STK11 functional score falls from 1.63 ± 0.4 to 1.1 ± 0.1.

First: N259D
Second: N259A
The STK11 functional score of the first is higher: 1.12 ± 0.63 for the first, -0.00474 ± 0.089 for the second.

N259L and N259F are within error of each other in STK11 functional score: 1.26 ± 0.31 for the first, 1.25 ± 0.24 for the second.

N259S and N259M are within error of each other in STK11 functional score: 1.34 ± 0.38 for the first, 1.35 ± 0.12 for the second.

N259C and N259H are within error of each other in STK11 functional score: 1.12 ± 0.42 for the first, 1.66 ± 0.14 for the second.

N259R and N259E are within error of each other in STK11 functional score: 1.13 ± 0.46 for the first, 1.47 ± 0.34 for the second.

N259G and N259W are within error of each other in STK11 functional score: 0.492 ± 0.49 for the first, 0.92 ± 0.36 for the second.

Compared with N259V, N259T is higher in STK11 functional score: 0.437 ± 0.1 for the first, 1.32 ± 0.51 for the second.

Going from N266G to N266P, the STK11 functional score rises from 0.477 ± 0.1 to 1.09 ± 0.12.

Going from N266T to N266A, the STK11 functional score rises from 0.876 ± 0.28 to 1.45 ± 0.15.

N266D and N266V are within error of each other in STK11 functional score: 1.13 ± 0.43 for the first, 0.844 ± 0.18 for the second.

N266K and N266L are within error of each other in STK11 functional score: 0.318 ± 0.26 for the first, 0.675 ± 0.16 for the second.

N266E and N266S are within error of each other in STK11 functional score: 0.101 ± 0.94 for the first, 0.965 ± 0.15 for the second.

Compared with N266W, N266M is lower in STK11 functional score: 0.574 ± 0.1 for the first, 0.331 ± 0.095 for the second.

N266H and N266R are within error of each other in STK11 functional score: 1.29 ± 0.56 for the first, 1.3 ± 0.14 for the second.

N266C and N266I are within error of each other in STK11 functional score: 0.945 ± 0.51 for the first, 1.38 ± 0.35 for the second.

I267V and I267M are within error of each other in STK11 functional score: 1.09 ± 0.29 for the first, 0.815 ± 0.11 for the second.

First: I267H
Second: I267W
The STK11 functional score of the first is higher: 1.45 ± 0.35 for the first, 0.777 ± 0.086 for the second.

I267T and I267D are within error of each other in STK11 functional score: 1.11 ± 0.46 for the first, 0.629 ± 0.22 for the second.

First: I267F
Second: I267S
The STK11 functional score of the first is lower: 0.659 ± 0.071 for the first, 1.16 ± 0.29 for the second.

I267P and I267G are within error of each other in STK11 functional score: 0.26 ± 0.21 for the first, 0.602 ± 0.3 for the second.

I267A and I267R are within error of each other in STK11 functional score: 1 ± 0.34 for the first, 1.01 ± 0.33 for the second.

I267N and I267L are within error of each other in STK11 functional score: 0.995 ± 0.36 for the first, 0.603 ± 0.12 for the second.

G268F and G268D are within error of each other in STK11 functional score: 1.16 ± 0.24 for the first, 1.53 ± 0.19 for the second.

G268H and G268N are within error of each other in STK11 functional score: 1.15 ± 0.61 for the first, 1.03 ± 0.38 for the second.

G268C and G268I are within error of each other in STK11 functional score: 1.25 ± 0.42 for the first, 1.65 ± 0.17 for the second.

G268Q and G268S are within error of each other in STK11 functional score: 1.26 ± 0.61 for the first, 1.55 ± 0.18 for the second.

G268T and G268L are within error of each other in STK11 functional score: 1.52 ± 0.16 for the first, 1.56 ± 0.23 for the second.

G268A and G268M are within error of each other in STK11 functional score: 0.916 ± 0.13 for the first, 0.465 ± 0.33 for the second.

First: G268V
Second: G268R
The STK11 functional score of the first is lower: 0.743 ± 0.19 for the first, 1.44 ± 0.2 for the second.

G268Y and G268P are within error of each other in STK11 functional score: 1.32 ± 0.19 for the first, 1.07 ± 0.18 for the second.

I260S and I260R are within error of each other in STK11 functional score: 1.44 ± 0.32 for the first, 1.66 ± 0.16 for the second.

First: I260A
Second: I260G
The STK11 functional score of the first is lower: 0.468 ± 0.26 for the first, 1.1 ± 0.25 for the second.

First: I260N
Second: I260F
The STK11 functional score of the first is higher: 1.67 ± 0.52 for the first, 0.763 ± 0.1 for the second.

I260W and I260V are within error of each other in STK11 functional score: 1.21 ± 0.38 for the first, 1.07 ± 0.18 for the second.

First: I260E
Second: I260T
The STK11 functional score of the first is lower: -0.179 ± 0.42 for the first, 1.33 ± 0.69 for the second.

I260L and I260D are within error of each other in STK11 functional score: 1.28 ± 0.27 for the first, 1.16 ± 0.21 for the second.

I260M gave an STK11 functional score of 1.32 ± 0.26.
